These results are taken from article PMC8427598, “Identification and Characterization of an Antennae-Specific Glutathione S-Transferase From the Indian Meal Moth” (Frontiers in Physiology, 2021).

This series concerns O=[N+]([O-])c1ccc(Cl)c([N+](=O)[O-])c1. Description: purified protein. The conditions noted are these: 50 mM GSH, acetate-phosphate buffer pH 7.5 (b1, b25; b45 prints optimum pH 7.0), 35 °C.

For the substance PiGSTd1 (Plodia interpunctella), the Km turned out to be 229.2 ± 18.05 µM.

The Km is the concentration of substrate that gives half-maximal velocity.
